# PMC12430012
# Where a chain is given by its changes, count along the chain named. Numbers in names are those of the source.
# B1: His6-DNAJB11 WT, Q9UBS4 T188A (protein)
# chain: GRDFYKILGVPRSASIKDIKKAYRKLALQLHPDRNPDDPQAQEKFQDLGAAYEVLSDSEKRKQYDTYGEEGLKDGHQSSHGDIFSHFFGDFGFMFGGTPRQQDRNIPRGSDIIVDLEVTLEEVYAGNFVEVVRNKPVARQAPGKRKCNCRQEMRTTQLGPGRFQMAQEVVCDECPNVKLVNEERTLEVEIEPGVRDGMEYPFIGEGEPHVDGEPGDLRFRIKVVKHPIFERRGDDLYTNVTISLVESLVGFEMDITHLDGHKVHISRDKITRPGAKLWKKGEGLPNFDNNNIKGSLIITFDVDFPKEQLTEEAREGIKQLLKQGSVQKVYNGLQGY
# B2: His6-DNAJB11 WT, Q9UBS4 T188E (protein)
# chain: B1 chain with A166E
# Target: GST-α-synuclein, P37840
# Assay: GST pull-down (glutathione agarose), western blot, ImageJ quantification
# Conditions: chain shown with the change; E. coli lysates, in vitro; parent: est. 1.0; read off a plot
row,ratio to parent,Binder
1,0.8,B1
2,4.9,B2
